Where a chain is given by its changes, count along the chain named.
What was measured:
[1] = biological target: Glu-plasminogen (Homo sapiens (Human)) (UniProt P00747); assay: competition of Glu-Plg (2 µM) binding to PMA-stimulated U937 cells by µ-plasmin-KD1L17R-KT complex, read by plasmin generation; Kd from IC50 by Cheng-Prusoff
human plasmin [2] = biological target: T1, human plasmin (human, UniProt P00747 97-810, limits assumed); assay: plasmin amidolytic activity inhibition, S-2251 substrate
human plasmin [3] = biological target: T1, human plasmin; assay: cell-based or functional assay
[4] = biological target: T2, active site-blocked human plasmin (human, UniProt P00747 97-810, limits assumed, active site blocked with a chloromethylketone inhibitor (e.g., D-Val-Phe-Lys chloromethylketone dihydrochloride)); assay: SPR (BiaCore), active site-blocked plasmin on CM5 chip, polypeptide as analyte at 1-10 µM
T2 construct: also called immobilized plasmin

[5] = biological target: T3, factor VIIa-tissue factor (soluble human tissue factor 100 nM and factor VIIa 50 nM) (human), P08709; assay: factor VIIa-tissue factor amidolytic activity inhibition, S-2288 substrate; conditions: remark: other sources report otherwise
T3 chain 1: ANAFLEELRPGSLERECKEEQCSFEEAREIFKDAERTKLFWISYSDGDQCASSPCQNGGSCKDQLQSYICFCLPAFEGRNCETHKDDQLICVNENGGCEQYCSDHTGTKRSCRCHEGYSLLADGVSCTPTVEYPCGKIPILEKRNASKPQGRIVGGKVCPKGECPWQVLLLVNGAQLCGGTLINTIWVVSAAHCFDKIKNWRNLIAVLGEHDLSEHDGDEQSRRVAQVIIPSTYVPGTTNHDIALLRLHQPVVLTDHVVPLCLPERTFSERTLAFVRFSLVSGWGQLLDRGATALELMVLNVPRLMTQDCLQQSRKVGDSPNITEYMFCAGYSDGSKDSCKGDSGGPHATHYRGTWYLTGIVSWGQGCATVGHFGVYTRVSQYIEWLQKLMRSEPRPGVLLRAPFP
T3 chain 2: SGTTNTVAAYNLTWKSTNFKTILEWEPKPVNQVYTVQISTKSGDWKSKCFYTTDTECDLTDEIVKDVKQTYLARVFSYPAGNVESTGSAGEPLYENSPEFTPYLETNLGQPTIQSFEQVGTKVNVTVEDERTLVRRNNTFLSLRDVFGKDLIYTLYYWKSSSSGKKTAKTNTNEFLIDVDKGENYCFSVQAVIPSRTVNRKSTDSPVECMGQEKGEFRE

Glu-plasminogen [6] = biological target: T4, Glu-plasminogen (Homo sapiens (Human), UniProt P00747 20-810, Native glycoprotein; the glycans are not carried by the letters.); assay: SPR (Biacore T100, 25 °C), Glu-Plg on CM5 chip, 1:1 binding model
T4 construct: also called Glu-Plg

human plasmin [7] = biological target: T1, human plasmin; assay: plasmin amidolytic activity inhibition, S-2251 substrate, 3 nM plasmin, tight-binding equation
Glu-plasminogen [8] = biological target: T4, Glu-plasminogen; assay: SPR, upper end tied to Glu-Plg by paragraph 202
[9] = biological target: T5, tissue plasminogen activator (Alteplase) (UniProt P00750 36-562); assay: SPR (Biacore T100, 25 °C), tPA on CM5 chip, 1:1 binding model
T5 construct: also called tPA

[10] = biological target: T5, tissue plasminogen activator (Alteplase); assay: SPR, lower end tied to tPA by paragraph 202
[11] = biological target: T2, active site-blocked human plasmin; assay: SPR (BiaCore), active site-blocked plasmin on CM5 chip, polypeptide as analyte at 1-12 µM

T5 sequence (P00750 36-562 limits assumed): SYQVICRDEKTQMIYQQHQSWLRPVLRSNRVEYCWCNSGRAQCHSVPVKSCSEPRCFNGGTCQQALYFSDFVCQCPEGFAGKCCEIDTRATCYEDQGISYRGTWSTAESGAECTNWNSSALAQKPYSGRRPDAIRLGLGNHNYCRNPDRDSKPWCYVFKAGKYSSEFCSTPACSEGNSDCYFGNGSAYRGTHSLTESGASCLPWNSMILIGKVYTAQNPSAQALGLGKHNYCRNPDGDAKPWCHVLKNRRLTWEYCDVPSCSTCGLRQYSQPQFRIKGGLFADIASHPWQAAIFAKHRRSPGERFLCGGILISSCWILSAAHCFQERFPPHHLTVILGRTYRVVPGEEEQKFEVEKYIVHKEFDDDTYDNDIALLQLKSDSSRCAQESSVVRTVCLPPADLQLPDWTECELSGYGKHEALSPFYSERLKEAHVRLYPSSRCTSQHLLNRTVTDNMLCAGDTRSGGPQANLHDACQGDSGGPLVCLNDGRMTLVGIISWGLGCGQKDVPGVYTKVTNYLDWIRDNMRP
T4 sequence (P00747 20-810 limits assumed): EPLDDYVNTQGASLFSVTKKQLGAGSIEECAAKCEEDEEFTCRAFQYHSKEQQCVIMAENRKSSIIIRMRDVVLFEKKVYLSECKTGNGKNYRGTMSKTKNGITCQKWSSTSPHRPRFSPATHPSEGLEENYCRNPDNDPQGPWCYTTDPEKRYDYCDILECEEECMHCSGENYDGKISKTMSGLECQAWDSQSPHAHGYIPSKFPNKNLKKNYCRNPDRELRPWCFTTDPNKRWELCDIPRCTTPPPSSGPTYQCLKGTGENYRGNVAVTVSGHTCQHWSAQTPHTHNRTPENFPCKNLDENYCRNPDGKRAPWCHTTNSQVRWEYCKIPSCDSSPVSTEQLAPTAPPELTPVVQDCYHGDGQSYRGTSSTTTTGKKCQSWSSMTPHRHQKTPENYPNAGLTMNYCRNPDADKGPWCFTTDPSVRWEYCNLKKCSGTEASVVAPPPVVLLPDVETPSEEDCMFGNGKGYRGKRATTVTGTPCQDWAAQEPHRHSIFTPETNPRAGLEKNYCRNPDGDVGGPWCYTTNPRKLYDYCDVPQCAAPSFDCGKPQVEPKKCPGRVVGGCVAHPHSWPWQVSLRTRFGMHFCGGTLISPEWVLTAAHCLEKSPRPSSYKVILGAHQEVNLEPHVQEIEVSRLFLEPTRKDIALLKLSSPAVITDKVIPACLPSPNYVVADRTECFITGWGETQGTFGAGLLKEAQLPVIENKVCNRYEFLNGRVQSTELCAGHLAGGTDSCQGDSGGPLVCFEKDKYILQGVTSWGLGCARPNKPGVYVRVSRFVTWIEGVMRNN
T2 sequence (P00747 97-810 limits assumed): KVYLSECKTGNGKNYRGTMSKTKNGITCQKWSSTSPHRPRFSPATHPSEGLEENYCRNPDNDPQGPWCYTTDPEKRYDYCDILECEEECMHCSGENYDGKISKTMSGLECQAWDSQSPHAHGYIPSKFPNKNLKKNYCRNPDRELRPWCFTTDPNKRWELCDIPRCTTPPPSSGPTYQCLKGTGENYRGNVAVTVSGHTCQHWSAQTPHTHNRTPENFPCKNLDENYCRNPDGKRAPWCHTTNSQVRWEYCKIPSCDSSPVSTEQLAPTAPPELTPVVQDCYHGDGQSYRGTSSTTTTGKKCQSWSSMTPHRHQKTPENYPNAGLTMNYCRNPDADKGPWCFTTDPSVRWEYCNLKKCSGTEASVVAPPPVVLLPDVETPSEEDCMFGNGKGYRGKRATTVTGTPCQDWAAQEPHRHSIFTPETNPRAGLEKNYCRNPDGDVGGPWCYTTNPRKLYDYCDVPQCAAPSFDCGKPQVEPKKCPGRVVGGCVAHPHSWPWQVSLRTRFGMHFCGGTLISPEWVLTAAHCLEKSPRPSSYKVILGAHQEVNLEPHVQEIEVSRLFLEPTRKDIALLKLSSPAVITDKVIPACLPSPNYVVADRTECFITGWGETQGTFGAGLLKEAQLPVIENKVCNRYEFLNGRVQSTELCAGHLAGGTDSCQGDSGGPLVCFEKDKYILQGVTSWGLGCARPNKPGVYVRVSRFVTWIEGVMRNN
T1 sequence (P00747 97-810 limits assumed): as above
Sequence of Glu-plasminogen (Homo sapiens (Human)) (P00747 20-810 limits assumed): as the sequence (P00747 20-810 limits assumed) above

µ-plasmin-KD1L17R-KT complex (from UniProt P00747 561-580; P00747 581-810)
Kd [1]: 300 nM

B1: plasmin-inhibiting polypeptide comprising the amino acid sequence set forth in SEQ ID NO:5 (designed binder)
chain: NAEICLLPLDYGPCRARLLRYYYDRYTQSCRQFLYGGCEGNANNFYTWEACDDACWRIEK
notes: Expressed in E. coli; also called 60A
Ki (human plasmin [2]): 2.36 nM | IC50 (nM), inhibition of plasmin activity (S2251 hydrolysis) (human plasmin [3]): 3.4 nM | Kd [4]: 130 nM

B2: plasmin-inhibiting polypeptide comprising the amino acid sequence set forth in SEQ ID NO:3 (designed binder)
chain: B1 chain with Y11T
notes: Expressed in E. coli; also called DM; 60B
Ki (human plasmin [2]): 0.49 nM | IC50 (nM), inhibition of plasmin activity (S2251 hydrolysis) (human plasmin [3]): 1.8 nM | Ki [5]: 5870 nM | Kd [4]: 313 nM

B3: KD1L17R-KT (designed binder)
chain: GNNAEICLLPLDYGPCRARLLRYYYDRYTQSCRQFLYGGCEGNANNFYTWEACDDACWRIEKVPK
notes: Both have C-terminal lysine; also called IIa cleaved KD1L17R-VT
Kd (Glu-plasminogen [6]): 280 nM | koff (Glu-plasminogen [6]): 0.00031 s⁻¹ | kon (Glu-plasminogen [6]): 1100 M⁻¹ s⁻¹ | Ki (human plasmin [7]): 1 nM | Kd (Glu-plasminogen [8]): 200 to 300 nM | Kd [9]: 210 nM | koff [9]: 0.00019 s⁻¹ | kon [9]: 910 M⁻¹ s⁻¹ | Kd [10]: 200 to 300 nM

B4: plasmin-inhibiting polypeptide comprising the amino acid sequence set forth in SEQ ID NO:4 (designed binder)
chain: NAEICLLPLDTGPCRARLLRYYYDRYTQSCRQFLYGGCEGNANNFYTWEACDDACWRIEKVPK
IC50 (nM), inhibition of plasmin activity (S2251 hydrolysis) (human plasmin [3]): 0.8 nM

B5: plasmin-inhibiting polypeptide comprising the amino acid sequence set forth in SEQ ID NO:6 (designed binder)
chain: B4 chain with T11Y
notes: Purified recombinant polypeptide; also called 63-residue
IC50 (nM), inhibition of plasmin activity (S2251 hydrolysis) (human plasmin [3]): 1.8 nM | Kd [11]: 290 nM

— patent publication EP2970434B1 (The Regents of the University of California, dated 2018)
